Results as given in patent US20050064518A1 (PURDUE PHARMA L P, published 2005).
Values belong to the binder of their own block, whether it stands above or below them.

Columns and labels:
[1] = biological target: T1, O772P 3-repeat recombinant protein (human); assay: BIAcore SPR, O772P 3-repeat immobilized, mAb injected
T1 construct: Repeats are residues 14-452 of the entry
T1 chain: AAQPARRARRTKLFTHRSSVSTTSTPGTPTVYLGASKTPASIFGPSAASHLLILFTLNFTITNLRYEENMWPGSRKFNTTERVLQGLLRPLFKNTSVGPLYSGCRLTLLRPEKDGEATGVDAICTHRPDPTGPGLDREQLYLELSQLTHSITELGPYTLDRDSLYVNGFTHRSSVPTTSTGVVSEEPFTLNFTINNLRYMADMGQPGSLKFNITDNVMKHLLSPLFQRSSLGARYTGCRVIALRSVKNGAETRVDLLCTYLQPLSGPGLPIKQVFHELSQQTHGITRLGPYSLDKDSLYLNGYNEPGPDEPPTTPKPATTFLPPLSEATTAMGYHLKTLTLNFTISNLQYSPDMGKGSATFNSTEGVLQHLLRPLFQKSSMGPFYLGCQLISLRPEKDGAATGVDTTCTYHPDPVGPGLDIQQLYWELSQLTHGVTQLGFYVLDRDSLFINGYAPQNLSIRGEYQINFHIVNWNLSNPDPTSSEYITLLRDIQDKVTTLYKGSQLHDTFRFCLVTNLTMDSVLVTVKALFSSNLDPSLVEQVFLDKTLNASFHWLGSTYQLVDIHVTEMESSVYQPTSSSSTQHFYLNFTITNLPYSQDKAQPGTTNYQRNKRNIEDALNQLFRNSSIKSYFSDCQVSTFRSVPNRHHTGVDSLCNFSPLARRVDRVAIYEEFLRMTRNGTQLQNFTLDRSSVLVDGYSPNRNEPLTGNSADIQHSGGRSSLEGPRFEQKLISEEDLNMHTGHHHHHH
Method: A […] BIAcore biosensor chip was docked into the BIAcore X instrument and activated with 55 μl of 1:1 NHS/EDC at room temperature. O772P 3-repeat region protein and BSA at 10 μg/ml in 0.05 M acetate buffer, pH 4.5, were immobilized onto the flow cell (FC) 1 and FC2 of the activated chip, respectively, at a flow rate of 5 μl/min to achieve a resonance response of 1000-2000 RU. The chip was then blocked by injection of 55 μl of ethanolamine-HCl, pH 8.5, and followed with washing 5 times with 50 mM NaOH-1 M NaCl. To measure the binding of anti-0722P mAbs to the O772P 3-repeat region immobilized to the chip, 30 μl of anti-0722P mAbs at varying concentrations in BIAcore running buffer (HBS-EP, Cat. #1001-080, BIAcore, Piscataway, N.J.) were injected over the sensor surface at a flow rate of 5 μl/min. Following completion of the injection phase, dissociation was monitored in BIAcore running buffer at the same flow rate for 360 seconds. The surface was regenerated between injections using 30 μl of 50 mM NaOH-1 M NaCl. Individual sensorgrams were analyzed using BIAevaluation.

[2] = biological target: T2, O772P 3-repeat TM on transfected NIH/3T3 cells (human); assay: flow cytometry, NIH/3T3 cells expressing O772P 3-repeat TM; Ab 2 µg/ml
T2 construct: also called NIH/3T3 O772P 3-repeat
T2 chain: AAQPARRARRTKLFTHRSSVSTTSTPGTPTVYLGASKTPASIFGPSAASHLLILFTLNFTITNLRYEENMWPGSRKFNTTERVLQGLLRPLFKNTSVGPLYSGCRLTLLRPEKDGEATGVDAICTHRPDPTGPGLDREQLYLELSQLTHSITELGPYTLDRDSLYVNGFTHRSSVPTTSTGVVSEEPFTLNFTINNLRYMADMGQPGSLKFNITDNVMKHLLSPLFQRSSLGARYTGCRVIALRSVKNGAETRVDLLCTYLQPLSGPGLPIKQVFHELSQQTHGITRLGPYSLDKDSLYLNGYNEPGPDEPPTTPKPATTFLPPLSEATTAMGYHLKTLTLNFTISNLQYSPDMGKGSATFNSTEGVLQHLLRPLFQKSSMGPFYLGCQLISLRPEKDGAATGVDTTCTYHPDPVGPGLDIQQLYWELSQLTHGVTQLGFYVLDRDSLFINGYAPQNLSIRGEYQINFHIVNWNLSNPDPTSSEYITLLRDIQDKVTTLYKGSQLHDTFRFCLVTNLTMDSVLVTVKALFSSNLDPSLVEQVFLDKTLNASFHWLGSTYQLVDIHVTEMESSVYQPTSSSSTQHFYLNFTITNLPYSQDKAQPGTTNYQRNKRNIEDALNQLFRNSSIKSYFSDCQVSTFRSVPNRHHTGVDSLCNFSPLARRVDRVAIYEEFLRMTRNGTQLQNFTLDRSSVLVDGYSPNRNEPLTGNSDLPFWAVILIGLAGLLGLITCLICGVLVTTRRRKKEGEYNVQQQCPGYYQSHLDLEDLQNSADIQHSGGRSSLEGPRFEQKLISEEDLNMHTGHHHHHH

[3] = biological target: T1, O772P 3-repeat recombinant protein; assay: ELISA competition, plate-bound O772P 3-repeat; competitor soluble O772P 3-repeat
Method: On the next day, the plates were washed with 200 μl 1×PBST (1× phosphate-buffered saline (PBS), 0.05% Tween 20) three times and blocked with 100 μl of 1×PBST containing 1% bovine serum albumin (BSA) for 2 hours at 37° C. […] After 1 hour incubation at 37° C., the plates were then washed with 1×PBST three times. For signal detection, 100 μl of HRP-conjugated sheep anti-mouse IgG (1:2000 dilution into 1×PBST+1% BSA, Amersham Biosciences) was added to each well and incubated for 1 hour at 37° C. The plates were washed again with 1×PBST three times. Finally, 100 μl¹ of a mixture of TMB substrate and H₂O₂ (1:1 ratio, KPL) was added into each well and the absorbance was measured at 405 nm with a plate reader (Molecular Devices Corp., Sunnyvale, Calif.). The assay was done in triplicate for each selected antibody and average values were calculated and presented. The percent inhibition compared to no competition was calculated for individual antibodies based on average values. Controls for blank and individual reagents were also included in each experiment.

Kd [1]: 70 nM | % positive cells [2]: 89% | absorbance w/O772P 3-repeat competitor (10 x w/w excess) [3]: 0.065 OD
B1: monoclonal antibody 501.1 (antibody, V domains shown)
VH: QIQLVQSGPELKKPGETVQISCKASGYIFTDYGMNWVKQAPGKGLKWMGCINTYTGETIYSDDFRGRFAISLETSASTAFIQINNLKNEDAATYFCARGNYRDAIDYWGQGTSVTVSS
VL: DIKMTQSPSSIYASLGERVTITCKASQDIKSYLSWYQQKPWKSPKTLIYYATTLADGVPSRFSGSGSGQDYSLIINSLESDDIATYFCLHHDESPFTFGSGTKLEI
notes: Murine hybridoma antibody

Kd [1]: 0.7 nM | % positive cells [2]: 86% | absorbance w/O772P 3-repeat competitor (10 x w/w excess) [3]: 0.915 OD
B2: monoclonal antibody 368.1 (antibody, V domains shown)
VH: EVQLQQSGPELVRTGASVKISCKASGYSFTGFYMHWVKQSLGKSLEWIGYVSCYTGATTYTQKFKGKATFTVDTSSSTAYMQLNSLTSEDSAVYYCAREGDYYSMDFWGQGTSVTVSS
VL: DVVMTQTPLSLPVSLGDQASISCRSSQSLERTNGNTYLHWYLQKPGQSPKLLIYKVSSRFSGVPDRFSGSGSGTDFTLKISRVEAEDLGIYFCSQTTHGPPTCGGGTKLEIK
notes: Murine hybridoma antibody

Kd [1]: 12 nM | % positive cells [2]: 83% | absorbance w/O772P 3-repeat competitor (10 x w/w excess) [3]: 0.071 OD
B3: monoclonal antibody 117.1 (antibody, V domains shown)
VH: QVTLKESGPGILQPSQTLSLTCSFSGFSLSTPGMGVGWIRQPSGKGLEWLAHIWWDDFKRDNPALKSRLTISKDTSSSQVFLKIASVDTADTATYYCVRVDGNFLSWYFDVWGAGTTVTVSS
VL: DAVMTQTPLSLPVSLGDQASISCRSSQSLVHSNGNTYLHWYLQKPGQSPKLLIYKVSNRFSGVPDRFSGSGSGTDFTLRISRVEAEDLGVYFCSQSRYVPWTFGGGTKLEIK
notes: Murine hybridoma antibody
